Patent publication US20120058906A1 (published 2012)
Blank lines part the entries; values can stand above or below the binder they belong to.

Legend:
[1] = molecular target: T1, rHuman HGF R/c-MET/Fc Chimera, CF (R&D Systems Cat#358-MT/CF) (human, UniProt P08581 25-932); experiment: ECL (MSD multi-spot), antigen spotted on plate; Fab 1.6 nM; blank 648
T1 construct: Bought protein; also called HGF R/Fc; hepatocyte growth factor receptor; Fc part of the bought chimera not given

[2] = molecular target: T2, rHuman EGF R/Fc Chimera, CF (R&D Systems Cat#344-ER) (human, UniProt P00533 25-645); experiment: as above
T2 construct: Bought protein; also called epidermal growth factor receptor; Fc part of the bought chimera not given

[3] = molecular target: T3, Recombinant Human DLL4 (R&D Systems Cat#1506-D4/CF) (human, UniProt Q9NR61 27-524); experiment: as above
T3 construct: Bought protein; also called rHuman DLL4; delta-like protein 4

[4] = molecular target: T4, rHuman IGF-1 sR (IGF-1 sR), CF (R&D Systems Cat#391-GR) (human, UniProt P08069 31-932); experiment: as above
T4 construct: Bought soluble receptor; also called insulin-like growth factor-1 soluble receptor; IGF-R1

[5] = molecular target: T1, rHuman HGF R/c-MET/Fc Chimera, CF (R&D …); experiment: ECL (MSD multi-spot), antigen spotted on plate; Fab 1000 nM; blank 2142
[6] = molecular target: T2, rHuman EGF R/Fc Chimera, CF (R&D …); experiment: as above
[7] = molecular target: T3, Recombinant Human DLL4 (R&D Systems …); experiment: as above
[8] = molecular target: T4, rHuman IGF-1 sR (IGF-1 sR), CF (R&D …); experiment: as above
[9] = molecular target: T1, rHuman HGF R/c-MET/Fc Chimera, CF (R&D …); experiment: ECL (MSD multi-spot), antigen spotted on plate; Fab 8 nM; blank 1188
[10] = molecular target: T2, rHuman EGF R/Fc Chimera, CF (R&D …); experiment: as above
[11] = molecular target: T3, Recombinant Human DLL4 (R&D Systems …); experiment: as above
[12] = molecular target: T4, rHuman IGF-1 sR (IGF-1 sR), CF (R&D …); experiment: as above
[13] = molecular target: T1, rHuman HGF R/c-MET/Fc Chimera, CF (R&D …); experiment: ECL (MSD multi-spot), antigen spotted on plate; Fab 40 nM; blank 1229
[14] = molecular target: T2, rHuman EGF R/Fc Chimera, CF (R&D …); experiment: as above
[15] = molecular target: T3, Recombinant Human DLL4 (R&D Systems …); experiment: as above
[16] = molecular target: T4, rHuman IGF-1 sR (IGF-1 sR), CF (R&D …); experiment: as above
[17] = molecular target: T1, rHuman HGF R/c-MET/Fc Chimera, CF (R&D …); experiment: ECL (MSD multi-spot), antigen spotted on plate; Fab 200 nM; blank 1659
[18] = molecular target: T2, rHuman EGF R/Fc Chimera, CF (R&D …); experiment: as above
[19] = molecular target: T3, Recombinant Human DLL4 (R&D Systems …); experiment: as above
[20] = molecular target: T4, rHuman IGF-1 sR (IGF-1 sR), CF (R&D …); experiment: as above
[21] = molecular target: T1, rHuman HGF R/c-MET/Fc Chimera, CF (R&D …); experiment: ECL (MSD multi-spot), antigen spotted on plate; Fab 0.32 nM; blank 428
[22] = molecular target: T2, rHuman EGF R/Fc Chimera, CF (R&D …); experiment: as above
[23] = molecular target: T3, Recombinant Human DLL4 (R&D Systems …); experiment: as above
[24] = molecular target: T4, rHuman IGF-1 sR (IGF-1 sR), CF (R&D …); experiment: as above
[25] = molecular target: T5, rHuman P-Cadherin/Fc Chimera, CF (R&D Systems Cat#861-PC) (human, UniProt P22223 108-654); experiment: ECL (MSD multi-spot), antigen spotted on plate; Fab 1000 nM; blank 1742
T5 construct: Bought protein; also called CDH3; Fc part of the bought chimera not given

[26] = molecular target: T6, rHuman CD44/Fc Chimera, CF (R&D Systems Cat#3660-CD) (human, UniProt P16070 21-220); experiment: as above
T6 construct: Bought protein; Fc part of the bought chimera not given

[27] = molecular target: T3, Recombinant Human DLL4 (R&D Systems …); experiment: as above
[28] = molecular target: T4, rHuman IGF-1 sR (IGF-1 sR), CF (R&D …); experiment: as above
[29] = molecular target: T5, rHuman P-Cadherin/Fc Chimera, CF (R&D …); experiment: ECL (MSD multi-spot), antigen spotted on plate; Fab 10 nM; blank 427
[30] = molecular target: T6, rHuman CD44/Fc Chimera, CF (R&D Systems …); experiment: as above
[31] = molecular target: T3, Recombinant Human DLL4 (R&D Systems …); experiment: as above
[32] = molecular target: T4, rHuman IGF-1 sR (IGF-1 sR), CF (R&D …); experiment: as above
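Also: blank spot per well as comparator with Hit at signal to blank ratio of 4 or more.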

- ECL signal [1]: 830
- ECL signal [2]: 862
- ECL signal [3]: 2130
- ECL signal [4]: 815
- ECL signal [5]: 3530
- ECL signal [6]: 3480
- ECL signal [7]: 14300
- ECL signal [8]: 3350
- ECL signal [9]: 1300
- ECL signal [10]: 1300
- ECL signal [11]: 9330
- ECL signal [12]: 1290
- ECL signal [13]: 1540
- ECL signal [14]: 1840
- ECL signal [15]: 13600
- ECL signal [16]: 1900
- ECL signal [17]: 2440
- ECL signal [18]: 2950
- ECL signal [19]: 14800
- ECL signal [20]: 2600
- ECL signal [21]: 574
- ECL signal [22]: 660
- ECL signal [23]: 646
- ECL signal [24]: 611
B1: Fab VH1-46_IGHD6-6*01_IGHJ1*01_S104A & L6_IGKJ1*01 (Fab, V domains shown)
VH: QVQLVQSGAEVKKPGASVKVSCKASGYTFTSYYMHWVRQAPGQGLEWMGIINPSGGSTSYAQKFQGRVTMTRDTSTSTVYMELSSLRSEDTAVYYCAREEYSSASAEYFQHWGQGTLVTVSS
VL: not shown
notes: Expressed in E. coli as a Fab; CH1 with Flag and His tags comes from Plasmid A and the kappa CL from Plasmid C; also called IGHV1-46*01; IGHJ1*01 S104A with IGKV3-11*01

- ECL signal [25]: 3430
- ECL signal [26]: 3380
- ECL signal [27]: 29800
- ECL signal [28]: 3990
- ECL signal [29]: 705
- ECL signal [30]: 841
- ECL signal [31]: 5230
- ECL signal [32]: 1120
B2: Fab VH5-51_IGHD5-18*01>3_IGHJ4*01_G104T & V3-4_IGLJ1*01 (Fab, V domains shown)
VH: EVQLVQSGAEVKKPGESLKISCKGSGYSFTSYWIGWVRQMPGKGLEWMGIIYPGDSDTRYSPSFQGQVTISADKSISTAYLQWSSLKASDTAMYYCARRGYSYTYDYFDYWGQGTLVTVSS
VL: QTVVTQEPSFSVSPGGTVTLTCGLSSGSVSTSYYPSWYQQTPGQAPRTLIYSTNTRSSGVPDRFSGSILGNKAALTITGAQADDESDYYCVLYMGSGISYVFGTGTKVTVL
notes: Expressed in E. coli as a Fab; CH1 with Flag and His tags comes from Plasmid A and the lambda CL from Plasmid E; also called IGHV5-51*03; IGHJ4*01 G104T with IGLV8-61*01
